The test system of series [1] is U2AF1alpha (Fritillaria borealis). Description: EMSA. As to conditions: 330 nM; single U2AF1; never exceeded 5% bound; EMSA: 20 mM Hepes, 0.1 M NaCl, 5% glycerol, 0.5% Tween-20, pH 7.8, 50 ng/ul BSA, 0.5 mM TCEP, 0.5 mM EDTA; 1 h on ice; 6% PAGE 0.5x TBE at 4 C.
Series [2] deals with U2AF1beta (Fritillaria borealis). Description: EMSA. As to conditions: 330 nM; single U2AF1; never exceeded 5% bound; EMSA: 20 mM Hepes, 0.1 M NaCl, 5% glycerol, 0.5% Tween-20, pH 7.8, 50 ng/ul BSA, 0.5 mM TCEP, 0.5 mM EDTA; 1 h on ice; 6% PAGE 0.5x TBE at 4 C. (In general: In EMSA bound probe runs differently from free probe, usually more slowly.)
The target of series [3] is GST-U2AF1α (Fritillaria borealis U2AF small subunit, paralog α) (Fritillaria borealis). Description: pull-down; GST-U2AF1 baits co-expressed with U2AF2-V5 in HEK293T cells; glutathione beads; washes under increasing salt concentration; western blot for V5 and GST. (In general: A western blot detects proteins with antibodies after separation by electrophoresis.)

This note sets out measurements from paper PMC13326754.

As to “GGGCUGUCCUCUUUUUUUUUUCAGGCGUCU [ORN.PyU]”, the binding signal in series [1] and in series [2] was < 5 % bound throughout.

Regarding GGGUCGCUUCUCCCCCCCCCUAGGCGUCU [ORN.PyC], the binding signal in series [1] and in series [2] was < 5 % bound throughout.

Regarding “U2AF2α-V5 (Fritillaria borealis U2AF large subunit, paralog α, V5/6xHis tagged) (natural protein)”, the excess protein bound on glutathione beads relative to U2AF2β in series [3] lay in the range of 10 to 35%.
